Values of other authors as cited in PMC9871243.

Assays:
[1] = system: Influenza A virus hemagglutinin (cited work) (Influenza A virus); settings: modifications in the cited assays not stated, PBS, pH and binding temperature not stated
[2] = system: Influenza A virus virion (cited work), hemagglutinin (Influenza A virus); settings: modifications in the cited assays not stated, PBS, pH and binding temperature not stated

TTGGGTTATTTTGGGAGGGCGGGGGTT [RHA0385 (as in cited works)]
Kd [1]: 0.6 nM | Kd [2]: 0.0011 nM
